In PMC10292035:

Target: E. cloacae Cap2 C109A/C548A (catalytically dead), untagged (Enterobacter cloacae)
Assay: cryo-EM structure

E. cloacae Cap2 C109A/C548A (catalytically dead), untagged (enzyme)
stoichiometry N: 2
